# Tested on: Tn5 transposase hyperactive mutant EK54/MA56/LP372 (EK45/MA56/LP372 [sic] in example) E54K,M56A,L372P (Escherichia coli (transposon Tn5)?)
# Test: cell_activity
# Details: 1 µl electroporated into E. coli MG1655, KanR colonies
substance,measurement,setting,value
linearized plasmid with mosaic-end kanamycin transposon and donor backbone,activity,with Mg2+,6900 CFU
released transposable element (PvuII cut) with kanamycin resistance cassette flanked by inverted mosaic ends,activity,"no Mg2+, synaptic complex formed in vitro, with Mg2+ 3.9e3, 10 µl dialyzed without Mg2+ 5.5e5",53000 CFU
supercoiled plasmid with mosaic-end kanamycin transposon and donor backbone,activity,"with Mg2+, none without transposase",1600 CFU

# Source: patent US6159736
